# Reference: paper PMC9116394, “Triple-negative and triple-positive breast cancer cells reciprocally control their growth and migration via the S100A4 pathway” (Cell Adhesion & Migration, 2022)
# B1: S100A4 protein (natural protein)
# chain: not shown
# notes: S100A4 (Mts1), endogenous in the human triple-negative breast carcinoma cell line MDA-MB-231; Monomeric, dimeric and tetrameric forms were told apart as bands on a western blot of cell extracts; also called Mts1; source: endogenous, MDA-MB-231 (TNBC) cell extract
# Target: the molecule itself
# Experiment: western blot of cell extracts; extracts of TNBC (MDA-MB-231) cells incubated in TPBC-medium, TNBC-medium or S-medium; detected with a polyclonal antibody to S100A4; gel conditions not stated
protein,measurement,value
B1,stoichiometry N,4
